Assay [1] addresses tunA (tunicate A, CBY12809.1), Oikopleura dioica S100 protein (Oikopleura dioica). Briefly: native MS; nanoESI time-of-flight MS; 10 or 100 mM ammonium acetate, pH 7.4; protein diluted from 10 uM to 0.01 uM; monomer to dimer.
The target is the same in assay [2]. Briefly: AUC; sedimentation velocity; ~50 uM protein; 25 mM TES, 100 mM NaCl, 1 mM TCEP, pH 7.4; interference optics; c(s) by SedFit; monomer to dimer.
Assay [3] deals with tunB (tunicate B, CBY30360.1), Oikopleura dioica S100 protein (Oikopleura dioica). Briefly: native MS; nanoESI time-of-flight MS; 10 or 100 mM ammonium acetate, pH 7.4; protein diluted from 10 uM to 0.01 uM; monomer to dimer.
Assay [4] has the same target. Briefly: AUC; sedimentation velocity; ~50 uM protein; 25 mM TES, 100 mM NaCl, 1 mM TCEP, pH 7.4; interference optics; c(s) by SedFit; monomer to dimer.

For “tunA (tunicate A, CBY12809.1), Oikopleura dioica S100 protein (natural protein)”, the stoichiometry N in assay [1] and in assay [2] was 2 throughout.

Consider “tunB (tunicate B, CBY30360.1), Oikopleura dioica S100 protein (natural protein)”, for which the stoichiometry N in assay [3] and in assay [4] was 2 in each case.

As a reminder, the stoichiometry N is the number of molecules, sites or subunits per partner or assembly.

The values are drawn from paper PMC5072561.
